# Source: PMC12990809
# How the values were obtained:
# Experiment in all cases: pulldown
# [1] = molecular target: lark (Drosophila melanogaster) (UniProt Q94901); settings: 20 nM protein, 1.5 uM RNA pool; 20 mM HEPES pH 7.8, 70 mM KCl, 10 mM NaCl, 10% glycerol, 2 mM DTT, 0.1 ug/uL BSA; 30 min, 4 C (protocol of this paper; not …); cited from earlier work
# [2] = molecular target: T1, ENSGALG00000014089 (Gallus gallus) (UniProt A0A8V0XZS6); settings: 20 nM protein, 1.5 uM RNA pool; 20 mM HEPES pH 7.8, 70 mM KCl, 10 mM NaCl, 10% glycerol, 2 mM DTT, 0.1 ug/uL BSA; 30 min, 4 C
# T1 sequence: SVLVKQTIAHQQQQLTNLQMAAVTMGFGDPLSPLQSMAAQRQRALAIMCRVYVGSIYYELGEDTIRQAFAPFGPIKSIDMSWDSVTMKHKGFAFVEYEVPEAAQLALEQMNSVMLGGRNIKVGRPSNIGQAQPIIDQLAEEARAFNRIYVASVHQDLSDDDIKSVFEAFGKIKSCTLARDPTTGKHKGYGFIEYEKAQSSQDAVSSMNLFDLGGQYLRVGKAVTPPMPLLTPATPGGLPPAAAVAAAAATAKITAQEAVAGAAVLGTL
# [3] = molecular target: T2, TBPH (Drosophila melanogaster) (UniProt E1JGV0); settings: 20 nM protein, 1.5 uM RNA pool; 20 mM HEPES pH 7.8, 70 mM KCl, 10 mM NaCl, 10% glycerol, 2 mM DTT, 0.1 ug/uL BSA; 30 min, 4 C
# T2 sequence: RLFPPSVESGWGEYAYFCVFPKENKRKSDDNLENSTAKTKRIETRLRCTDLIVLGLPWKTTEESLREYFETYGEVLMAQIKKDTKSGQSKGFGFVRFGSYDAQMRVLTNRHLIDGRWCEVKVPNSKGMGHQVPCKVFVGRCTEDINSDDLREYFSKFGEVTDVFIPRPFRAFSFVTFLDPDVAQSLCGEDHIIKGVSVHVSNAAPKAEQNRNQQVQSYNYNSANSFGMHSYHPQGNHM
# [4] = molecular target: T3, Tb11.01.5690 S174N (Trypanosoma brucei) (UniProt Q382C7); settings: 20 nM protein, 1.5 uM RNA pool; 20 mM HEPES pH 7.8, 70 mM KCl, 10 mM NaCl, 10% glycerol, 2 mM DTT, 0.1 ug/uL BSA; 30 min, 4 C
# T3 sequence: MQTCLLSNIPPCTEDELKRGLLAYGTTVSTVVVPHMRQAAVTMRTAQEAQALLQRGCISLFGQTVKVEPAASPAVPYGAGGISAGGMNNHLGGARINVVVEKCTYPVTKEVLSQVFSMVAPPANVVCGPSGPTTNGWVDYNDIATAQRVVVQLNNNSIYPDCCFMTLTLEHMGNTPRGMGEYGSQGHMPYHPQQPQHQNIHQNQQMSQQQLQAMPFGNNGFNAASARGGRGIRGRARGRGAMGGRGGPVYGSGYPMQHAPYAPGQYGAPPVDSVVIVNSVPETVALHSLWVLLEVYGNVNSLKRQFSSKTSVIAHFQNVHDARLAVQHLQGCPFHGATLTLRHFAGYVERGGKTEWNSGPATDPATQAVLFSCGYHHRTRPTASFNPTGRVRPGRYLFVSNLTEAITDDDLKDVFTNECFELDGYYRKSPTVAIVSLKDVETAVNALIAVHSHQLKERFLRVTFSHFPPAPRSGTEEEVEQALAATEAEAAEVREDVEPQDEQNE
# [5] = molecular target: RBPMS2 (Monodelphis domestica) (UniProt A0A5F8GJ20); settings: 20 nM protein, 1.5 uM RNA pool; 20 mM HEPES pH 7.8, 70 mM KCl, 10 mM NaCl, 10% glycerol, 2 mM DTT, 0.1 ug/uL BSA; 30 min, 4 C
# RBPMS2 (Monodelphis domestica), sequence (A0A5F8GJ20 entry or part of it): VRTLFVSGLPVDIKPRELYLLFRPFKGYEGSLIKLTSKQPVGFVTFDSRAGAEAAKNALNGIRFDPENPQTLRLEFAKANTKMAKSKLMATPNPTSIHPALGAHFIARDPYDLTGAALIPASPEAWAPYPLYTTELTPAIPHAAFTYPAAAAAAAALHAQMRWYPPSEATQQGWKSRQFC
# [6] = molecular target: T4, NCU00556 (Neurospora crassa) (UniProt Q7SF93); settings: 20 nM protein, 1.5 uM RNA pool; 20 mM HEPES pH 7.8, 70 mM KCl, 10 mM NaCl, 10% glycerol, 2 mM DTT, 0.1 ug/uL BSA; 30 min, 4 C
# T4 sequence: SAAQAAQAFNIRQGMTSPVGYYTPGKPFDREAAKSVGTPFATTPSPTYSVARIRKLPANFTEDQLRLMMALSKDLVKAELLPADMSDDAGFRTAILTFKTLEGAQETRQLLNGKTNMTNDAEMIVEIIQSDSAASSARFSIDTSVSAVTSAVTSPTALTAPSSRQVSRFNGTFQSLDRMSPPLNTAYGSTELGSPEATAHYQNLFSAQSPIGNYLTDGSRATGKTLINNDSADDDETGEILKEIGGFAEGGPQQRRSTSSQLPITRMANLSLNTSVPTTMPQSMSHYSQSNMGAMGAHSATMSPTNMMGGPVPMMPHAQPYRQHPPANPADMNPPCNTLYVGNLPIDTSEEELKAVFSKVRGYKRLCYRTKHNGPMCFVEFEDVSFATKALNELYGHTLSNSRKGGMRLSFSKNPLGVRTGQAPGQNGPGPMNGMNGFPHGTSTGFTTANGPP
# [7] = molecular target: T5, sart3 (Tetraodon nigroviridis) (UniProt H3DEK9); settings: 20 nM protein, 1.5 uM RNA pool; 20 mM HEPES pH 7.8, 70 mM KCl, 10 mM NaCl, 10% glycerol, 2 mM DTT, 0.1 ug/uL BSA; 30 min, 4 C
# T5 sequence: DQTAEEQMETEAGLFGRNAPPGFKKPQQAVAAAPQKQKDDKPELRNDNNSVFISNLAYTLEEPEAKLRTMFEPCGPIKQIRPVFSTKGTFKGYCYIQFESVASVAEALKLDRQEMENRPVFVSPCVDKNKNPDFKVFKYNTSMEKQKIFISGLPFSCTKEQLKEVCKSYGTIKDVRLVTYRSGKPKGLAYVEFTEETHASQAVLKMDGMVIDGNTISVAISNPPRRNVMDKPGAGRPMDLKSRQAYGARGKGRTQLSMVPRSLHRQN
# [8] = molecular target: T6, NCU00707 (Neurospora crassa) (UniProt Q7SET9); settings: 20 nM protein, 1.5 uM RNA pool; 20 mM HEPES pH 7.8, 70 mM KCl, 10 mM NaCl, 10% glycerol, 2 mM DTT, 0.1 ug/uL BSA; 30 min, 4 C
# T6 sequence: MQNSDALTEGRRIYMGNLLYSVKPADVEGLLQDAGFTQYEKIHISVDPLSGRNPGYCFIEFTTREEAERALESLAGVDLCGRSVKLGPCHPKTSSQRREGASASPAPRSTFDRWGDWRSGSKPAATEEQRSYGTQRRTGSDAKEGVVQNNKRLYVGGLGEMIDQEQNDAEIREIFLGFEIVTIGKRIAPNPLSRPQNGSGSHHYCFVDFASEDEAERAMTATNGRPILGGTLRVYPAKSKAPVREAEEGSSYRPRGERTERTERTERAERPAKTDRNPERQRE
# [9] = molecular target: T7, LmjF.29.1370 (Leishmania major) (UniProt E9ADZ6); settings: 20 nM protein, 1.5 uM RNA pool; 20 mM HEPES pH 7.8, 70 mM KCl, 10 mM NaCl, 10% glycerol, 2 mM DTT, 0.1 ug/uL BSA; 30 min, 4 C
# T7 sequence: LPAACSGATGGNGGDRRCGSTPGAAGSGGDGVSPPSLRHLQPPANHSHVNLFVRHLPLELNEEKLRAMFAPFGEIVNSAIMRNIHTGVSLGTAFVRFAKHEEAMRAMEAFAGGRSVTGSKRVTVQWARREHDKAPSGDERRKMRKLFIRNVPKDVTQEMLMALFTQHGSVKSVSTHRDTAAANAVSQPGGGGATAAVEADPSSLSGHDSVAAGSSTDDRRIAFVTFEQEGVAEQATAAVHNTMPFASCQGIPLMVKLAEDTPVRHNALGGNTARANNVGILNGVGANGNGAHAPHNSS
# lark (Drosophila melanogaster), sequence (Q94901 1-207): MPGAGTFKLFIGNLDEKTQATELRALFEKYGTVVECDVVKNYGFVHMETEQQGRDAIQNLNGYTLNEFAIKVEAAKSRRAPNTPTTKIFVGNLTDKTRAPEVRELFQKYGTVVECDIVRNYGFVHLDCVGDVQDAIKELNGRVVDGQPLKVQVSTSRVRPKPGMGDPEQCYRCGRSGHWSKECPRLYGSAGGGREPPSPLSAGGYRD
substance,measurement,setting,value
UCGCGCG [RNAcompete motif RNCMPT00097],binding signal (z-score (mean of top ten 7-mers)),[1],15.5
UUUUUUU [RNAcompete motif RNCMPT00760],binding signal (z-score (mean of top ten 7-mers)),[2],11.4
GANUGA [RNAcompete motif RNCMPT00776],binding signal (z-score (mean of top ten 7-mers)),[3],9.14
GAAAGAAA [RNAcompete motif RNCMPT00773],binding signal (z-score (mean of top ten 7-mers)),[4],9.18
ANCACG [RNAcompete motif RNCMPT00757],binding signal (z-score (mean of top ten 7-mers)),[5],8.74
UUGCAU [RNAcompete motif RNCMPT00754],binding signal (z-score (mean of top ten 7-mers)),[6],14.3
AGAGAAG [RNAcompete motif RNCMPT00774],binding signal (z-score (mean of top ten 7-mers)),[7],11.5
UUAUGA [RNAcompete motif RNCMPT00768],binding signal (z-score (mean of top ten 7-mers)),[8],7.83
CAUAGU [RNAcompete motif RNCMPT00762],binding signal (z-score (mean of top ten 7-mers)),[9],29.8
